In paper PMC3325491 (Structure(London, England:1993), 2012):

Tests used:
[1] = target: HPV16 E6N domain (residues 1-80), wild type (HPV16); assay: NMR titration
[2] = target: the molecule itself; assay: AUC
[3] = target: the molecule itself; assay: SEC

HPV16 E6N domain (residues 1-80), wild type (domain or fragment)
Kd [1]: 290 µM

B1: HPV18 E6N domain (residues 1-82) (domain or fragment)
chain: MARFEDPTRRPYKLPDLCTELNTSLQDIEITCVYCKTVLELTEVFEFAFKDLFVVYRDSIPHAACHKCIDFYSRIRELRHYS
stoichiometry N [2]: 2

B2: HPV11 MBP-E6N fusion construct (E6N residues 1-81) (domain or fragment)
chain: MESKDASTSATSIDQLCKTFNLSLHTLQIQCVFCRNALTTAEIYAYAYKNLKVVWRDNFPFAACACCLELQGKINQYRHFN
stoichiometry N [3]: 2
